# Substitutions are numbered along the chain they refer to. Numbers in names are those of the source.
# T1: FITC labeled Clr3 (S. pombe, UniProt P56523 1-687, FITC label)
# T1 construct: Clr3, histone deacetylase, S. pombe; source: E. coli Rosetta, purified, labeled with the EZLabel Protein FITC Labeling Kit
# T1 sequence (looked up): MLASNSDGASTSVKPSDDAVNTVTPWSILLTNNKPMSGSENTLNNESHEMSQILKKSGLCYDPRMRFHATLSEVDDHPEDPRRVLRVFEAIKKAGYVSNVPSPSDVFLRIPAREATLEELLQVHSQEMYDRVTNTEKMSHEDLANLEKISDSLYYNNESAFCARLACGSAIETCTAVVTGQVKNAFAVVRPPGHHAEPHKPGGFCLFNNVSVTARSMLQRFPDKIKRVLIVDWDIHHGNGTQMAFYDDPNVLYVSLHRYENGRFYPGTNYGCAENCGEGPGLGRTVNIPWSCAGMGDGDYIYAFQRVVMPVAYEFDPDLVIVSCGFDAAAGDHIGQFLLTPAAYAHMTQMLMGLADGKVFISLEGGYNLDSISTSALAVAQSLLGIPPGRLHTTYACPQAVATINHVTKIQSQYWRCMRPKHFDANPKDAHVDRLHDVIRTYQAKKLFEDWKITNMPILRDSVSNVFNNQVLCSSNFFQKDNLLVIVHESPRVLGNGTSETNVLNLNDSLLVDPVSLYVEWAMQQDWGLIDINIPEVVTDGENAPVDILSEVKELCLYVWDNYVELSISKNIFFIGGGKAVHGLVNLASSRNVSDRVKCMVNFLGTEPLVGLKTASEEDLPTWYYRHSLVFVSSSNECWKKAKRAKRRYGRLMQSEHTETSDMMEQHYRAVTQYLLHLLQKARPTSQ
# B1: Sad1_(60-169) (domain or fragment, S. pombe, UniProt Q09825 60-169, looked up)
# chain: ESITPKQRFPAPNFEQAYHSNIRYEQEESDNEEFENVVKNGHEASTNVFYESDGDDEEFVNEEYENSIDEESDDEGYSLNEDTTATNASFRYPMNQRSTRKSQFYSSKFK
# notes: source: E. coli Rosetta, purified; not shown: GST, N-terminal, cleaved
# B2: Sad1_(60-169) F118A (domain or fragment, S. pombe, UniProt Q09825 60-169, looked up)
# chain: B1 chain with F59A
# notes: also called Sad1 F118A; source: E. coli Rosetta, purified; not shown: GST, N-terminal, cleaved
# B3: Sad1_(60-169) with charge-reverse mutations of D114 and E117 (domain or fragment)
# chain: B1 chain with D55R, E58R
# B4: Clr3 (untagged) (enzyme, S. pombe, UniProt P56523 1-687, looked up)
# chain: T1 sequence (looked up)
# notes: Clr3, histone deacetylase, S. pombe; source: E. coli Rosetta, purified (Ni-NTA, Ulp1 digestion, Superdex); not shown: 6*His-Sumo, N-terminal, cleaved
# B5: Sumo-Sir2 fusion protein (enzyme, S. pombe, UniProt O94640 1-475, looked up)
# chain: MASNPLDNNMPTTPVEEKIPVASYSPSSSGSSSGASLLVDIMCGSKETEDEEVDSDEWDKPETENISDLDERSEMVRYLRASGYAKFLEKYLIEEELPVRSILKKLGINLPSALEEFEDIDLLPLLKEVLKREVARRIKLPHFNTFEDVVNLLKKAKNVVVLVGAGISTSLGILDFRSDNGFYARLARHGLSEPSEMFDIHTFRENPEIFYTFARDLLPETNHYSPSHAFIRLLEKKNKLSTLFTQNIDNLEKKTGLSDNKIIQCHGSFATATCIKCKHKVDGSELYEDIRNQRVSYCNECGKPPLKLRRVGQNKKEKHYFSDGDSESSEDDLAQPGIMKPDITFFGEALPDSFFNKVGSGELEETDLLICIGTSLKVAPVSELISVIPPTTPQIYISRTPVRHTQFDVNFLSPYCDWVIVEICKRAGWLNELQALCDLPECHSGSKTRAFETDLDIKFEEPSTYHITSTTNGSC
# notes: Sir2, histone deacetylase, S. pombe; The legend says that some untagged Sir2 from self-proteolysis was present; source: E. coli Rosetta, purified (Ni-NTA, eluted with imidazole, Superdex); not shown: 6*His-Sumo, N-terminal, kept
# B6: GST-Sad1_(1-169) (domain or fragment, S. pombe, UniProt Q09825 1-169, looked up)
# chain: MFTNTPVGGKRERQNGAHPAWSTLGANSAQIHQNTADLASKMHKLRYTKIRSPPTRVSIESITPKQRFPAPNFEQAYHSNIRYEQEESDNEEFENVVKNGHEASTNVFYESDGDDEEFVNEEYENSIDEESDDEGYSLNEDTTATNASFRYPMNQRSTRKSQFYSSKFK
# notes: pGEX-6P-1 vector; source: E. coli Rosetta, purified (glutathione Sepharose 4B, eluted with reduced glutathione, Superdex); not shown: GST, N-terminal, kept
# B7: Sad1_(1-169) (domain or fragment, S. pombe, UniProt Q09825 1-169, looked up)
# chain: B6 chain
# notes: Cleavage is told in general for proteins not needed with their tag; used in ITC, SEC and MST; also called Sad1NTD; source: E. coli Rosetta, purified (glutathione Sepharose 4B, 3C digestion on beads, Superdex); not shown: GST, N-terminal, cleaved
# Key:
# Settings in all cases: both partners purified
# [1] = molecular target: T2, S. pombe H2AB fusion protein (H2B_(32-126)-H2A_(15-108)) (S. pombe, UniProt P04913 32-126; P04909 15-108); assay: ITC; MicroCal ITC200, 20 °C; 25 mM Tris-HCl pH 8.0, 400 mM NaCl, 2 mM DTT; Sad1 (500 μM) titrated into H2AB (50 μM)
# T2 construct: histone H2A, S. pombe, residues 15-108; No linker between the two parts is told; Modified pCDF-Duet vector, His tag followed by a 3C site; also called single-chain fusion of H2A and H2B; H2A-H2B fusion protein; source: E. coli Rosetta, purified (3C digestion, Superdex); not shown: 6*His, N-terminal, cleaved
# T2 sequence (P04913 other isoform, or with tags, fused parts or gaps): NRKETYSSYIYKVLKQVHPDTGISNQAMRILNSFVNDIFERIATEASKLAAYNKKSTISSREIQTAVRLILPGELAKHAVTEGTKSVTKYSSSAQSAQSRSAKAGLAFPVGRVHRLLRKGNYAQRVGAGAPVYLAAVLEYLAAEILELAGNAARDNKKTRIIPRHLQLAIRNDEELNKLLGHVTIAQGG
# [2] = molecular target: T3, GST-Sad1_(1-169) with H2AB (Sad1-H2AB complex of the pull-downs) (S. pombe, UniProt Q09825 1-169; P04913 32-126; P04909 15-108); assay: pull-down; GST-Sad1_(1-169) on glutathione beads with silencing factors in the presence of H2AB; same buffer as the histone pull-downs
# T3 construct: histone H2A, S. pombe, residues 15-108; m1 with m5; source: E. coli Rosetta, purified proteins mixed; not shown: GST, N-terminal, kept; 6*His, N-terminal, cleaved
# T3 sequence (P04913 other isoform, or with tags, fused parts or gaps): as above
# Clr3 (untagged) = molecular target: B4; assay: pull-down; GST-Sad1_(1-169) on glutathione beads with Sumo-Sir2 or untagged Clr3, in the absence of H2AB; same buffer as the histone pull-downs
# FITC labeled Clr3 = molecular target: T1, FITC labeled Clr3; assay: MST; Monolith NT.115; 25 mM HEPES pH 7.5, 150 mM NaCl, 2 mM DTT; 20 nM FITC labeled Clr3; ligands (500 μM Sad1_(1-169) or 250 μM Sad1_(1-169)-H2AB complex) diluted by 12 gradients; medium MST power, 80% LED
binder,measurement,setting,value
B1,binding result,[1],binds
B2,binding result,[1],binds
B3,fold decrease of binding affinity against wild-type Sad1_(60-169),[1],5.6 fold
B4,binding result,[2],binds
B5,binding result,[2],binds
B6,binding result,Clr3 (untagged),binds
B7,Kd,[1],9.5 µM
same,binding result,FITC labeled Clr3,binds

# — publication PMC11109203 (Nature Communications, 2024)
